# B1: LINE1-full (parent)
# chain: UACGUAGGUGGUUUUCCCCUGAUAGUGCUAAGGGGGCCUGGAAGUUUGGACUGGGCAGAGCUCAACACAGCGUGGCAAAGUGGCUGUGGCUAGACUGCCUCUCUGGAUUCCUCGUCACUCAGCAGGGCAUCUCUGAGAGAAAUGCC
# Variants of: B1
# Test: self-cleavage, relative activity (ratio to wild type); higher = more cleavage; in vitro, sequencing; the parent is a self-cleaving ribozyme
row,Variant,self-cleavage
1,A94G U100C,0.44
2,A42G C95U,0.2
3,U73A G122A,1.98
4,U45C U46A,0.74
5,A43G U47C,1.31
6,A69G A107G,0.37
7,G34A G126A,1.68
8,A24G G53U,1.03
9,U13C U20G,0.69
10,C3A G127A,0.43
11,G4A C116A,1.22
12,C37G A57G,0.73
13,U47A A140G,0.99
14,U46A U108C,1.37
15,U47C U134A,1.34
16,A50G A78G,0.53
17,G60A C68U,0.03
18,U47A U87C,0.19
19,A42G A77U,1.02
20,A67C A141G,0.12
21,U52C U134G,2.76
22,A65U A140U,0.1
23,G10C C146U,1.91
24,A22C A124G,1.92

row,Variant,self-cleavage
1,G48U U85A,0.1
2,A30U A107G,1.28
3,A22G U73C,1.37
4,C76G U102C,2.25
5,U20C G44U,1.06
6,G122U U130C,1.21
7,U26C C63U,0.66
8,A94G U109A,0.39
9,C18A A57G,1.29
10,A57G A124G,0.41
11,A57G A124U,0.76
12,U26C A117G,1.51
13,U5C U52C,1.23
14,G25A U62C,0.11
15,C56A A141G,0.07
16,A57G C98U,0.19
17,U143C C146U,1.51
18,U52G U85C,0.15
19,A117G U134A,1.37
20,U14G U96C,0
21,A67G A92U,0.41
22,U91C C133A,0.74
23,U134G G137U,0.94
24,A67G A117G,0.52

row,Variant,self-cleavage
1,U29G U108C,0.54
2,A67G G126A,0.58
3,A67G A142C,0.93
4,A6U A92G,0.27
5,C71A C133U,0.08
6,C19G A117U,1.69
7,U20C A65U,0.14
8,A42G A67G,0.88
9,G25A U87C,0.22
10,U26A A67G,0.4
11,G36A U46C,1.32
12,C3U U26G,0.87
13,C113U U143C,1.05
14,U87C G126U,0.3
15,U85G A107G,0.09
16,A22U U39A,1.17
17,A140G U143C,0.26
18,U115C A140G,1.58
19,U5A A141G,1.23
20,A140U G144A,1.39
21,C19U G93A,0.07
22,U13C U52G,1.3
23,A67U A141G,0.13
24,A57G U81C,0.89

row,Variant,self-cleavage
1,A79G U109G,0.8
2,G126U A129G,1.61
3,A57G U100A,0.3
4,A65U G114A,0.19
5,U5C A117G,0.81
6,U73C U87A,0.31
7,U104C G125A,1.28
8,U1C U9A,0.75
9,G27A A142G,1.15
10,A121G C146U,1.39
11,A50G G106A,1.41
12,G7A U109C,1.19
13,U62C A92G,0.04
14,U12A U109A,0.65
15,U26C U143A,1.44
16,C56U U87C,0.11
17,U1C G34U,0.68
18,G60A U102C,0.01
19,U20A U81C,0.84
20,A64G A94G,0.06
21,G54A U115A,0.64
22,G33A A59U,0.65
23,G60A G105U,0.01
24,G34A G82U,2.19

row,Variant,self-cleavage
1,U9C C95G,0.12
2,U52C U102C,1.14
3,U52A A78U,2.37
4,U91C A124U,0
5,U14A C101A,1.42
6,G25A U100C,1.81
7,G41A U134A,0.89
8,A24G A42G,1.11
9,G10A A67U,0.07
10,U26A C120A,1.12
11,A22G A69U,0.14
12,A42C U102C,1.13
13,A2G A42G,0.72
14,G74A U81C,0.78
15,U39C G106C,0.84
16,A65U G88U,0.02
17,A43C A77U,1.39
18,U115C A121U,2.06
19,U73A A121G,1.93
20,C18A G89A,0.05
21,G27A U87C,0.19
22,A22G A78U,1.85
23,U5G G34C,0.94
24,C98A A141G,0.17

row,Variant,self-cleavage
1,A59U A107G,1.96
2,U39G A79G,1.28
3,A64U C111A,0.35
4,A69C U143A,0.07
5,G32A U115A,1.5
6,A43U A121U,0.79
7,A94U U143A,0.21
8,G41A G60U,0.04
9,U46G U132A,1.4
10,C16U A64G,0.09
11,U47C A59U,0.6
12,A50G U104C,1.08
13,U14A U23C,1.44
14,U15C A138G,1.49
15,U26C G58U,0.04
16,U73G U108A,1.33
17,A79G G88A,0.03
18,G54U U104C,1.28
19,G49U A65C,0.04
20,A64U U130A,0.62
21,U104C A141G,1.69
22,U13C A78U,1.81
23,U15A A42G,1.31
24,U91C U134C,0.87

row,Variant,self-cleavage
1,A57U A142G,0.12
2,U12C C28U,0.74
3,G7U G54C,0.49
4,C63A A142G,0.06
5,U12G U91A,0.97
6,U29A U112C,0.43
7,U73C A79G,1.79
8,A43G A136U,1.5
9,A78G G97A,0.11
10,C98A U112C,0.05
11,A24U A78G,1.31
12,U102A A107G,1.06
13,G36A A117G,1.34
14,A50G C66U,0.08
15,U104C G126U,1.59
16,G97A U132C,0.11
17,C17A,1.27
18,U12C G55A,0.64
19,U81A U115C,2.44
20,A30G G70U,0.11
21,G54U A136G,1
22,A43G G127A,0.98
23,A107U U119C,2.16
